In IntAct's records for PubMed 25416944:

What follows are substances tested against vhl_human VHL (UniProt P40337).
Chain of vhl_human VHL (P40337 whole entry, looked up): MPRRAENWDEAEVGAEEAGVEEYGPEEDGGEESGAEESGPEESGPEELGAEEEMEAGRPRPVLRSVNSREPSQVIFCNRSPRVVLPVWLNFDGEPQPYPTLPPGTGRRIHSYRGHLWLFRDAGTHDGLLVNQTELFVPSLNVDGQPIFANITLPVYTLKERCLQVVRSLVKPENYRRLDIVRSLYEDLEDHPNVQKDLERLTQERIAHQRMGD

Chain of T-complex protein 1 subunit alpha (Saccharomyces cerevisiae), P12612 V311A (P12612 whole entry V311A, one chain of several): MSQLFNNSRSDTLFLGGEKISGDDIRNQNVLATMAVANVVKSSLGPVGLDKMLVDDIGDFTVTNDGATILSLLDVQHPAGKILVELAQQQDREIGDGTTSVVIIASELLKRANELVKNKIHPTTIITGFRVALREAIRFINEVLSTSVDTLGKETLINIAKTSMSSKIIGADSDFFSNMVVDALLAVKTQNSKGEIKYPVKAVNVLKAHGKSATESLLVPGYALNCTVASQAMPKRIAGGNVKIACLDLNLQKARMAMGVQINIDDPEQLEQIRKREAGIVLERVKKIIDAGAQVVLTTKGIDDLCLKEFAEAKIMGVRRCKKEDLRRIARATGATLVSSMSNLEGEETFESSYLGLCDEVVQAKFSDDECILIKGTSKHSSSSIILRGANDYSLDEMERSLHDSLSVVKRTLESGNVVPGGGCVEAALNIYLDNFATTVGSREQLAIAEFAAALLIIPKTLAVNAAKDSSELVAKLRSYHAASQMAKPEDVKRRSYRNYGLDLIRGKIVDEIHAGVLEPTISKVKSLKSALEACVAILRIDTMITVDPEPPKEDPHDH
Chain of T-complex protein 1 subunit alpha (Saccharomyces cerevisiae), P12612 L326A (P12612 whole entry L326A, one chain of several): as the sequence (P12612 whole entry V311A, one chain of several) above, with A311V, L326A counted along it
Chain of T-complex protein 1 subunit alpha (Saccharomyces cerevisiae), P12612 L305A (P12612 whole entry L305A, one chain of several): as the sequence (P12612 whole entry V311A, one chain of several) above, with L305A, A311V counted along it
Chain of T-complex protein 1 subunit alpha (Saccharomyces cerevisiae), P12612 R319A (P12612 whole entry R319A, one chain of several): as the sequence (P12612 whole entry V311A, one chain of several) above, with A311V, R319A counted along it

Effect of a mutation on the interaction, decreasing interaction strength:
T-complex protein 1 subunit alpha (Saccharomyces cerevisiae), P12612 L305A
T-complex protein 1 subunit alpha (Saccharomyces cerevisiae), P12612 R319A
T-complex protein 1 subunit alpha (Saccharomyces cerevisiae), P12612 L326A
T-complex protein 1 subunit alpha (Saccharomyces cerevisiae), P12612 V311A
